Changes are numbered by the printed parent chain.

Sequences and labels used below:
T1: human PTH receptor (Mus musculus, UniProt P41593)
T1 construct: mouse cranial bone-derived osteoblast-like cell strain MC3T3-EI cultivated on a 96-well multiplate; endogenous in cells; host or cells: MC3T3-E1 (mouse cranial bone-derived osteoblast-like cells)
T1 sequence (P41593 27-591): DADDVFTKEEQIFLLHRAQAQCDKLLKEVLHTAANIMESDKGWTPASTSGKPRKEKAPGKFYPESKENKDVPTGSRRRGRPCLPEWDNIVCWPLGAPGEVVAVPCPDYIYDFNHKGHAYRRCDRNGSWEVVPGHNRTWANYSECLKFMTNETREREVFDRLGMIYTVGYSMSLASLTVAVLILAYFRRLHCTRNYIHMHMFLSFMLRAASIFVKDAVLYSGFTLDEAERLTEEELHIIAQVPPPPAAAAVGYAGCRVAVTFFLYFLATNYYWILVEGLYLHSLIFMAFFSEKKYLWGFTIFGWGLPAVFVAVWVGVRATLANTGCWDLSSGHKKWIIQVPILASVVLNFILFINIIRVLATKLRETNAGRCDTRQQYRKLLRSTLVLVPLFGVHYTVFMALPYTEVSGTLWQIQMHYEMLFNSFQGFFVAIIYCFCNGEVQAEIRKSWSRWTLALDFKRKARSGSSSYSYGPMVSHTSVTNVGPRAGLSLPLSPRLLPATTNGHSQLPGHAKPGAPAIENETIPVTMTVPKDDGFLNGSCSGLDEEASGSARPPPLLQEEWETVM

B1: [Leu^8 ] human PTH (protein)
chain: SVSEIQLLHNLGKHLNSMERVEWLRKKLQDVHNFVALGAPLAPRDAGSQRPRKKEDNVLVESHEKSLGEADKADVNVLTKAKSQ
B2: [Leu^18 ] human PTH: human PTH (1-84) mutein in which methionine at the 18-position was substituted by leucine (protein)
chain: B1 chain with L8M, M18L
B3: [Cys^35 ] human PTH: human PTH (1-84) mutein in which valine at the 35-position was substituted by cysteine (protein)
chain: B1 chain with L8M, V35C
B4: [Leu^8,18 ] human PTH: human PTH (1-84) mutein in which methionine residues at the 8- and 18-positions were substituted by leucine (protein)
chain: B1 chain with M18L

The target of the first series is human PTH receptor.
Test: not given
Conditions: not given
[Cys35] human PTH (1-84) (ligand) came in with a cAMP production in MC3T3-EI cells; specific activity on the natural type human PTH (relative to natural type human PTH) of 0.6. [Leu8,18] human PTH (1-84) (ligand): the cAMP production in MC3T3-EI cells; specific activity on the natural type human PTH (relative to natural type human PTH) came out at 0.3. The same measure, in the same setting: then [Leu8] human PTH (1-84) (ligand), with 1; and [Leu18] human PTH (1-84) (ligand), with 0.2. For the molecule natural type human PTH (1-84) (ligand), the cAMP production in MC3T3-EI cells; specific activity on the natural type human PTH (relative to natural type human PTH) amounted to 1.

Another series has as its target T1, human PTH receptor. The series can be described thus: cAMP production in osteoblast-like MC3T3-EI cells (modified method of Shigeno et al.). Conditions: specific activity of the muteins on the natural type human PTH (=1.0), 0.01-100 nM analogue, room temperature, 30 minutes. The series is classed as cell-based. The protocol:
The biological activity of human PTH muteins obtained in Examples 2 to 6 and natural type human PTH were evaluated by a modification of the method reported by Shigeno et al. [The Journal of Biological Chemistry 263. 18369-18377 (1988)]. A culture solution (Hank's solution containing 20 mM N-2-hydroxyethylpiperazine-N'-2-ethanesulfonic acid (HEPES), 0.1% bovine serum albumin (BSA) and 0.5 mM isobutylmethylxanthine) containing 0.01, 0.1, 1, 10 or 100 nM analogue was added in an amount of 100 μl to mouse cranial bone-derived osteoblast-like cell strain MC3T3-EI cultivated on a 96-well multiplate (Nunclon, Nunc), followed by reaction at room temperature for 30 minutes. After addition of 100 μl of 0.2N hydrochloric acid, the mixture was immersed in boiling water for 2.5 minutes, and cyclic adenosine monophosphate (cAMP) produced by a human PTH receptor was extracted from the cells. The total cAMP in the culture solution and the cells was assayed using a commercial radioimmunoassay kit (cyclic AMP [^125 I] kit "Du Pont-Daiichil", Daiichi Kagaku Yakuhin). An increase in cAMP production depending on the concentration of the human PTH mutein added was always observed. The specific activity of the muteins on the natural type human PTH is as follows: […]
Consider “Human PTH: natural type parathyroid hormone, polypeptide hormone consisting of 84 amino acids [reference compound]”, for which the “Specific Activity” value was determined as 1.0. Still for that read-out and setting: then B1, with 1.0; and B2, with 0.2. Still for that read-out and setting: to B3 belongs 0.6. Same read-out and setting: then B4, with 0.3.

The record behind these values is US5856138A, “Human parathyroid hormone muteins and production thereof” (Takeda Chemical Industries, Ltd., priority 1991, dated 1999).
